Laboratory results as given in the DeepSol protein solubility set.

test: soluble on expression in E. coli; label from the status in PepcDB or PDB records

Soluble on expression in E. coli, not soluble:
MGSDKIHHHHHHMQVRDFIKHLKNGERPPLTLILGEESALRQQAQHAIASMIPEDQQAMNFGRYDMQQTPVGAALNDATSMPFFGDYREVVIDDPYFLTGEKNADKIDHDLAGLQAYFENPVPSTMMVIIAPYKKLDERKRLTKALKKAALIVNAAPLDEREARAALAQTFKKHQVTIDAPALDTLVQRTNGQYSIMMGEVRKLLTYASDGSPLTVAAVEALVPKQLNDRVFDLVTDVLRKNAAAALALYRDLLAQREEPIRLNALMLGQFRLLLQVKLLAKKGYSQGDIAGTLKAHPYRVKLAMRQVDRLPYQQLATAYSGLVDTETAMKTGTIDKALAFELFMLKYTGQQSGKHVRG, MGSDKIHHHHHHMKNSPLNGLNGLKAFLETKPKEYHKFDPSRFIQIYKDFKNAFFEIQAKVIHVVGTNGKGSTGRFLTLLLADQNFKVLHFTSPHVFEFRERFFLNGSVVGESVLENAHQQLQSHAFSSACSYFEYATLLAVMLAKDCDYLVLEAGLGGEFDSTNALKKTLSVFTPIDYDHKEFLGDSLESIAQTKLKAMGSLSIIAPQQELVLNAAQKIAKEKHAKLIVVQNEISKGVRDYIERYHLARFLAMNLEVALKAFETLLPCNKQEVLKNLKPLNLIGRCELLSPNILIDVGHNPHSAKALKEEIKRIFNAKIILIYNCYQDKDAFLVLEILKPVIKKVLILELHEERVIKLEKLKGILETLGLEYALFEDVEENENYLVYGSFLVANAFYKRYQEKRD, MSSRVANLTVIVSSKRRRVSVARFSCGKTAQLSKKQTGYYSPEIFPSTGKDCNPQPANCLKDQYVLRHCCVDDRSGKMGYSVKFLVLTRMDTETASLFHCKPCYSKMTFTIYHPLTHSFFTSCWLEHHHHHH, MIIEFLKKLLAGTPETVPAKETKRMTKVLVLYYSSYGHIETMAYAVAEGVESTGAEAVVKRVPELVPEEVAKSSHFKMDQPAPVATVDELAEYDAIIVGAGTRFGTVASQMRNFWDQTGGLWFSGKLVGKVGSAFTSSATQHGGQESTILGFIPTFLHHGMAVVGLPYAFQGQMGVDEIKGGSPYGASTITDGDGSRQPSAIELDAARYQGAHVAKLAAKLSA, MIDLENQEREIINLMFSQRISWLAAVRIRHKLSLAEVSKMLGISINSLKQIEKTERLSSNIKSKMAEIYGCPPELLICPSWMTAEHK, TDKPRHRFFDAETEALYARLARALPGYDFALQGWNRDEDTFIVAAYNDRTPGSRYLYDARRDSLHKLADINPAIPEADMAPVRPVSYQSRDGLTIHGYLTLPAGRAPRNLACIVNPHGGPWARDGWGYNPEVQFLANRGFCVLQMNFRGSTGYGRKFWEAGFGQWGLKMQDDITDGVQWLIDQGIADPRRIGIYGGSYGGYATLAGVAFTPDLYAAAVDYVGVSNLFTFMNTIPPYWKPLLAKMQDMVGDPVRDKARLEATSPALHVDRIKTPLFIAQGAKDPRVNKAESDQVVQALRQRGVEVEYMVKDNEGHGFHNDENKFEFYAAMEKFFTEHLK, MGSDKIHHHHHHMIQGKKVVSTLDVSDLEPGKKHLLYFQGVEMPTGQHWHVSVTVAKGAKPGKRGVLVSGVHGDEMSSVHTIQTVMSQLDPAQMSGTVMAVTDVSRPAMEGMQRRWPNFGRGTDLIDMNREWPGNENGVTAASRQAGLLFNRLLRPNADFAIDFHTGTTGFDVAAFNIGGMDVPEIKAMLELYPVGQIFDNHVYPSVLHNAFIAAGIPSFCPEIGAARVLDLEMISLFVEGTMNVLKHHGIVAGPMGRTGKDVHVFVGNSAFPILATAGGLVEHLVKLNDKVEAGQKLAIQRDSFGEVVAEYASGVAGEISGLRSDAMSEPGNPLVFVLFNKPGPEDVGGYPE, MFEPGHLHLVSLPGLDQQDINIHIRYEVRQNAESGAYVHFDMDGEIDGKPFSDSFELPRDTAFNFASDATRVAQKHGLHPKFGAITRVHKEYDAMFEDIRAKLHAHPGEPVDLERIIRHE, MYRRLASGLYQTSQRRIAQVQPKSVFVPETIVTTLPNGFRVATENTGGSTATIGVFIDAGSRYENEKNNGTAHFLEHMAFKGTPRRTRMGLELEVENIGAHLNAYTSRESTTYYAKCFTEKLDQSVDILSDILLNSSLATKDIEAERGVIIREMEEVAQNFQEVVFDILHADVFKGNPLSYTILGPIELIQTINKNDLQGYINTHYRSGRMVLAAAGGVNHDAIVKMAEKYFGELKHGDSSTEFVPATYSPCEVRGDIPDLPMLYGAMVVEGVSWTHEDNLALMVANTLMGEYDRMRGFGVNAPTRLAEKLSQDAGIEVFQSFNTCYKETGLVGTYFVAAPESIDNLIDSVLQQWVWLANNIDEAAVDRAKRSLHTNLLLMLDGSTPVCEDIGRQLLCYGRRIPTPELHARIESITVQQLRDVCRRVFLEGQVSAAVVGKTQYWPVNEEIHGRLIRMQ, MKKFSGIIPPVSSTFHRDGTLDKKAMREVADFLINKGVDGLFYLGTGGEFSQMNTAQRMALAEEAVTIVDGRVPVLIGVGSPSTDEAVKLAQHAQAYGADGIVAINPYYWKVAPRNLDDYYQQIARSVTLPVILYNFPDLTGQDLTPETVTRLALQNENIVGIKDTIDSVGHLRTMINTVKSVRPSFSVFCGYDDHLLNTMLLGGDGAITASANFAPELSVGIYRAWREGDLATAATLNKKLLQLPAIYALETPFVSLIKYSMQCVGLPVETYCLPPILEASEEAKDKVHVLLTAQGILPV, MGSDKIHHHHHHVSDLLSQDEIDALLHGVDDVDDDDDLDAASQDARSYDFSSQDRIVRGRMPTLEIVNERFARHLRISMFNMMRRAAEVSINGVQMLKFGEYVHTLFVPTSLNMVRFSPLKGTALITMEARLVFILVDNFFGGDGRFHAKIEGREFTPTERRIVQLLLKIIFEDYKDAWAPVMDVEFDYLDSEVNPAMANIVSPTEVVVINSFHIEVDGGGGDFHITMPYSMIEPIRELLDAGVQSDKQDTDMRWSQALHDEIMDVKVGFDACVVEHELTLKDVMNFKAGDIIPVELPEYIMMKIEDLPTYRCKMGRSRDNLALKIYEKIPRPETVKTELQLVTRKGKARDISEL, MTLEKKEYGAPGFWPGSMIGRVHAFETPAPLTRAQLDRLRDEFFETRTEGHLEIWTAIRAASHAQEAGDDELAYAIITAVGILPAEVGPAGEGLGERIPFAEQPLDRLLGMICGCCFPAFTRYRTLERVYDQRGFLYETPKECIATPSNVLPDESTEASAR, MSRIIALIISFLLVGCATPPMPAQRIVGEVRMSRPLSRIAHIDVSMFGLYEGKVREVQRTHFETGNLPLFFSIKLNPAQRGEGELYLRSTLSFPERGVQAVAQQKLTGKNKVVLQMIPKTCYPNCQLPNTR, MGSPLPFRLTCVWAGEPSMKKAIIFDCEFLCLEGSQRRFWCAAHDPDPVIAQIGAVKLGLEGGFPLLETYKVLISPVDRHGRRYAIDPFFTRLTGITEENIEAEGVPLQDALSSFDSFSEGAQCWSWGKDELNMMAISTYVAGIQPPMPACRFDNAVRLLLAAGMPVEDLAKTPSNSLADYYGVAHPPLQGHDALGDALSVSYALQHLLRSGKLKPEEFTLAAAAALEHHHHHH, MASHWMIYGANGYTGRLVAEQAQREGLTPLLGGRNPAALHALGSQLGLECRVFDLGDPQACREALDQVKVVAHCAGPFSATSTPMIAACRAAGTHYVDITGEIAVFEQAHAGDAEAREAGIVVCPGVGFDVIPTDCLAACLKEALPDAQRLALGFDTGSGLSTGTAKTSVEGLKFGGKIRENGRLRDVPLGYKRRDIDFGRGLRHAVTIPWGDVATAYYSTGIPDIEVYLPAPPLLALGMRLIDPLRPLLGRQRVQDWLKGQVDKRIAGPDQAARERLRTWVWGEARNARGERRTARLETANVYDLTLHGVLLAVRHLLDYQGPGGYFTPSRLLGARCVESLPGSGRITVIG

Soluble on expression in E. coli, soluble:
GASTRDYEIQRERIELGRCIGEGQFGDVHQGIYMSPENPALAVAIKTCKNCTSDSVREKFLQEALTMRQFDHPHIVKLIGVITENPVWIIMELCTLGELRSFLQVRKYSLDLASLILYAYQLSTALAYLESKRFVHRDIAARNVLVSSNDCVKLGDFGLSRYMEDSTYYKASKGKLPIKWMAPESINFRRFTSASDVWMFGVCMWEILMHGVKPFQGVKNNDVIGRIENGERLPMPPNCPPTLYSLMTKCWAYDPSRRPRFTELKAQLSTILEEEKAQQEE, MAHHHHHHMALKLCKRFLRSNTKKPIFSKARDNLKERFDDDNYSFLEDNSFDSPLKASDEFPSYMQPSDKNSSWSEEWRDENLKLREKENRYNLRVSDNYAYSVPYNYKIVIPHKGKNIKDEKDKRKKLLNDEKYIKEEYSRDVSNTLNYSDFCGFRNPTLSTFENYRYWQDSGFKKFMNRIFPIKIPEHRKIDPLLREYIYFLHSFDPYRFTFKRLSERYLFPENVIRSIYKEESVKRFLEDYHLCDDKTKRISKKEAVLKIKELIYSKKIGYKDIGDYENIKNEQDEFCGHKNTFDQINRQIIQVESISAFPLADRRNPVPKRVDIDMTVCNTSNIKIMNWINPNDKVIF, MLQYRIIVDGRVQGVGFRYFVQMEADKRKLAGWVKNRDDGRVEILAEGPENALQSFVEAVKNGSPFSKVTDISVTESRSLEGHHRFSIVYS, MGSDKIHHHHHHMYVTSQIHAKGSDLAKLMQIAALKGNEEVLDVATGGGHVANAFAPFVKKVVAFDLTEDILKVARAFIEGNGHQQVEYVQGDAEQMPFTDERFHIVTCRIAAHHFPNPASFVSEAYRVLKKGGQLLLVDNSAPENDAFDVFYNYVEKERDYSHHRAWKKSDWLKMLEEAGFELEELHCFHKTFIFEDWCDRMNVTTEKKQELSDFIKSKPTEYYQKFKIVVEDGRVYSFRGESILMKARKPTVKNKGSS, MSGEVGSNECLVSTNEVQEDSPAVTESSSANGSSPVRRGRGRPPKGTKVPKVKPAPKPYSGAPRGRPRKSDQVAKSPVAKSPVASSSADASPKRSRGAPKSYAEDVAATKPAKTDVATPALAALTGEKKGRGRPKKN, MHLNNLNNFNNLENNGEYHCSGPIIKKPFRHIALTVPSSDITNFNEIFYVEPQYIAQAIRLTNTFQGAIDPLTLNFNFEKALQIANGLPNAGVTGTINQSVIHQTIEVSVMISQIKEIIRSVLGLVINSANFWNSVVSAITNTFTNLEPQVDENWIVWRNLSATQTSYFYKILFSIQNEDTGRFMAILPIAFEITVDVQKQQLLFITIKDSARYEVKMKALTVVQALDSYNAPIIDVFNVRNYSLHRPNHNILQNLNVNPIKS, MSELTSNRIRTTAAKLGLPHLAEALNQYVQRADEAKMGYLDFLDLVLAEELAVRDDRRFRNGLRLSKLPHHKTLEDYDFSFQPDLDPRKVKDLATLSFIEDKANVALLGPPGVGKTHIAVALAVAACRAGYSIYFTSLDDMVRHLKAAEDQGRLISKLTSYLRPAVLVVDEVGYQPLERAEANLVFQVISKRYEKGSIILTSNKTFGEWGQVFGDEVLATAILDRLLHHCEVVSINGNSYRLKNRLQAIERDTDVALEHHHHHH, MKAKPLSQDPGSKRYAYRINKEENRKELKHVKINESSLVQEGQKIDLPKKRYYRQRAHSNPFSDHQLEYPVSPQDMDWSKLYPYYKNAENGQMTKKVTIADIGCGFGGLMIDLSPAFPEDLILGMEIRVQVTNYVEDRIIALRNNTASKHGFQNINVLRGNAMKFLPNFFEKGQLSKMFFCFPDPHFKQRKHKARIITNTLLSEYAYVLKEGGVVYTITDVKDLHEWMVKHLEEHPLFERLSKEWEENDECVKIMRNATEEGKKVERKKGDKFVACFTRLPTPAIL
